The text below walks through data of the supplement of paper PMC7125110.

B1: glmS ribozyme (parent)
chain: AUAAAAGCGCCAGAACUACAGAAAUGUAGUUGACGAGGAGGAGGUUUAUCGAAUUUUCGGCGGAUGCCUCCAAA

Common to all, as to details: with glucosamine-6-phosphate
In series [1] the parent is B1. Briefly: self-cleavage kobs at 40 uM GlcN6P; higher = faster cleavage; RNA array. An outline of the steps: (§1)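 Tiles of sequenced MiSeq chips were imaged over ~14 h at 37 °C. On them, barcoded ribozyme variants had been transcribed in situ by E. coli RNA polymerase and were tracked via a hybridised Cy3 probe while glucosamine-6-phosphate (40 μM to 10 mM) in HEPES/KCl/Mg(OAc)2 buffer flowed in. Per-tile medians, normalised to baseline and to non-cleaving reference variants, were fit to one- or two-exponential decays for kobs, and weighted Michaelis–Menten fits gave kcat and KM.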

The variants in series [2] derive from B1. As to the kind of experiment: self-cleavage kobs at 10000 uM GlcN6P; higher = faster cleavage; RNA array. An outline of the steps:
as §1

Series [3] covers variants of B1. As to the kind of experiment: self-cleavage kobs at 160 uM GlcN6P; higher = faster cleavage; RNA array. An outline of the steps: as §1
The variants in series [4] derive from B1. As to the kind of experiment: self-cleavage kobs at 640 uM GlcN6P; higher = faster cleavage; RNA array. An outline of the steps:
as §1

Series [5] covers variants of B1. Briefly: self-cleavage kobs at 2500 uM GlcN6P; higher = faster cleavage; RNA array. An outline of the steps: as §1

± gives the standard error. Variants at the floor of the assay were thinned out.

In the case of AUAAAAACGCCAGAGCUACAGAAAUGUAGUUGACGAGGAGGAGGUUUAUCUAAUUUUGGGCGGUUGCCUACAAA, in the series with glucosamine-6-phosphate [1], the “self-cleavage kobs at 40 uM GlcN6P” value was determined as 0.000522 ± 0.00019 s⁻¹. Further, the “self-cleavage kobs at 10000 uM GlcN6P” value in the series with glucosamine-6-phosphate [2] stood at 0.000462 ± 0.00017 s⁻¹.

With AUAAAAGUGCCAGAACUACAGAAAUGUAGUGGACGAGGAGGAGGUUUAUCGAAUUUUCGGCGGAUGCCUCCAAA, the “self-cleavage kobs at 40 uM GlcN6P” value with glucosamine-6-phosphate [1] was below 1e-05 s⁻¹. In addition, the “self-cleavage kobs at 160 uM GlcN6P” value with glucosamine-6-phosphate [3] was below 1e-05 s⁻¹. Besides, the “self-cleavage kobs at 640 uM GlcN6P” value with glucosamine-6-phosphate [4] is below 1e-05 s⁻¹. Besides, in the series with glucosamine-6-phosphate [5], the “self-cleavage kobs at 2500 uM GlcN6P” value is below 1e-05 s⁻¹. Further, in the series with glucosamine-6-phosphate [2], the “self-cleavage kobs at 10000 uM GlcN6P” value is below 1e-05 s⁻¹.

As for AUAAAAGCGCCAGAACUAAAGAAAUGUAGUUGACGAGGAGGAGGUUUAUGGAAUUUUCGGCGGAUGCCUCCAAA, the “self-cleavage kobs at 40 uM GlcN6P” value with glucosamine-6-phosphate [1] is 5.77e-05 ± 2.2e-05 s⁻¹. Also, the “self-cleavage kobs at 160 uM GlcN6P” value with glucosamine-6-phosphate [3] stood at 0.000364 ± 9.5e-05 s⁻¹. Moreover, the “self-cleavage kobs at 640 uM GlcN6P” value with glucosamine-6-phosphate [4] is 0.000594 ± 0.00013 s⁻¹. Moreover, in the series with glucosamine-6-phosphate [5], the “self-cleavage kobs at 2500 uM GlcN6P” value was found to be 6.17e-05 ± 2.2e-05 s⁻¹. In the series with glucosamine-6-phosphate [2], the “self-cleavage kobs at 10000 uM GlcN6P” value came to 4.18e-05 ± 1.5e-05 s⁻¹.

For AUAAAAGCGCCAGAACUACAGAAAUGUAGGUGACGAGGAGGAGCUUUAUCGAAUUUUCGGCGGAUGCCUCCAAA, the “self-cleavage kobs at 40 uM GlcN6P” value with glucosamine-6-phosphate [1] was below 1e-05 s⁻¹. Further, the “self-cleavage kobs at 160 uM GlcN6P” value with glucosamine-6-phosphate [3] is below 1e-05 s⁻¹. The “self-cleavage kobs at 10000 uM GlcN6P” value with glucosamine-6-phosphate [2] was 3.93e-05 ± 1.1e-05 s⁻¹.

As for AUAAAAGCGCCAGAACUACAGAAAUGUAAUUGGCGCGGAGGAGGCUUAUCGAAUUUUCGGCGGAUGCCUCCAAA, the “self-cleavage kobs at 40 uM GlcN6P” value with glucosamine-6-phosphate [1] was below 1e-05 s⁻¹.

AUAAAAUCGCCAGAACUACAGAAAUGUAGUUGACGAGGAGGAGGUUUAUCGAAUUUUCGGCGGCUGCCUCCAAA: the “self-cleavage kobs at 40 uM GlcN6P” value with glucosamine-6-phosphate [1] is below 1e-05 s⁻¹. The “self-cleavage kobs at 640 uM GlcN6P” value with glucosamine-6-phosphate [4] is below 1e-05 s⁻¹. In the series with glucosamine-6-phosphate [2], the “self-cleavage kobs at 10000 uM GlcN6P” value was below 1e-05 s⁻¹.

On to AUAAAAGCGCCAGAACUACAGAAAUGUAGUUGACGAGGAGGAGGUUUAUCUAGUUUUCGGCGGAUGCCUCCAAA, for which the “self-cleavage kobs at 40 uM GlcN6P” value with glucosamine-6-phosphate [1] is below 1e-05 s⁻¹. Also, the “self-cleavage kobs at 160 uM GlcN6P” value with glucosamine-6-phosphate [3] is below 1e-05 s⁻¹. For the same variant, the “self-cleavage kobs at 640 uM GlcN6P” value with glucosamine-6-phosphate [4] is below 1e-05 s⁻¹. In the series with glucosamine-6-phosphate [5], the “self-cleavage kobs at 2500 uM GlcN6P” value was below 1e-05 s⁻¹.

Take AUAAAAGCGCCAGAACUACAGAAAUGUAGUUGAGGAGGAGUAGGUUUAGCGCAUUUUCGGCGGCUGCCUCCAAA: the “self-cleavage kobs at 40 uM GlcN6P” value in the series with glucosamine-6-phosphate [1] is below 1e-05 s⁻¹.

For AUAAAAGCGCCAGACCUACAGAAAUGUAGUUGACGAGGAGGAGGUUUAACGAAUUUUCGGCGGAUGCCUCCAAA, the “self-cleavage kobs at 40 uM GlcN6P” value with glucosamine-6-phosphate [1] is below 1e-05 s⁻¹. In addition, the “self-cleavage kobs at 640 uM GlcN6P” value with glucosamine-6-phosphate [4] was below 1e-05 s⁻¹. For the same variant, the “self-cleavage kobs at 10000 uM GlcN6P” value with glucosamine-6-phosphate [2] is below 1e-05 s⁻¹.

Consider AUAAAAGCGCCAGAACUACAGAAAUGUAGUUGUCGACGAGGAGGUUUAUCGAAUUUUCGGCGGAUGCCUCCAAA, for which, in the series with glucosamine-6-phosphate [1], the “self-cleavage kobs at 40 uM GlcN6P” value is below 1e-05 s⁻¹. In addition, in the series with glucosamine-6-phosphate [3], the “self-cleavage kobs at 160 uM GlcN6P” value was below 1e-05 s⁻¹. In addition, the “self-cleavage kobs at 10000 uM GlcN6P” value with glucosamine-6-phosphate [2] was below 1e-05 s⁻¹.

For AUAAAAGCGCCAGUACUACAGAAAUGUAGUUGACGAGGAGGAGGUUUAUCGAAUAUUCGGCGGAUGCCUCCAAA, in the series with glucosamine-6-phosphate [1], the “self-cleavage kobs at 40 uM GlcN6P” value was 0.000252 ± 3.9e-05 s⁻¹. The “self-cleavage kobs at 10000 uM GlcN6P” value with glucosamine-6-phosphate [2] was 0.00696 ± 0.0011 s⁻¹.

In the case of AUAAAAGCACCAGAACUACAGAAAUGUAGUUGACGAGGGGGAGGUUUAUCGAAUUUUCGGCGGAUGCCUCCAAA, the “self-cleavage kobs at 40 uM GlcN6P” value in the series with glucosamine-6-phosphate [1] was below 1e-05 s⁻¹. Besides, the “self-cleavage kobs at 160 uM GlcN6P” value with glucosamine-6-phosphate [3] is below 1e-05 s⁻¹.

AUAAAAGCGCCAGAACUACAGAAAUGUAGUUGACGAGGAGGAGGUUUAUCGAGUUUUCGGCAGAUGCCUCCAAA: the “self-cleavage kobs at 40 uM GlcN6P” value with glucosamine-6-phosphate [1] was below 1e-05 s⁻¹. In the series with glucosamine-6-phosphate [4], the “self-cleavage kobs at 640 uM GlcN6P” value was below 1e-05 s⁻¹. In the series with glucosamine-6-phosphate [2], the “self-cleavage kobs at 10000 uM GlcN6P” value was below 1e-05 s⁻¹.

AUAAAAGUGCUAGAACUACAGAAAUGUAGUUGACGAGGAGGAGGCUUAUCGAAUUUUCGGCGCAUGCCUCCAAA: the “self-cleavage kobs at 40 uM GlcN6P” value in the series with glucosamine-6-phosphate [1] was below 1e-05 s⁻¹.
